Test results as given in paper PMC9108986, “Bioinformatic identification of previously unrecognized amyloidogenic proteins” (The Journal of Biological Chemistry, 2022).
Substitutions are numbered along the chain they refer to. Names may count otherwise.

Target: the molecule itself
Assay: amyloid fibre formation (thioflavin T fluorescence + electron microscopy + X-ray fibre diffraction); self-association into fibres; 50 uM protein in 1x PBS with 40 uM ThT, 37 °C, 700 rpm double orbital shaking with a PTFE bead, ~138 h; end-point samples imaged by negative-stain TEM; fibres diffracted (rings at 4.7 and 10 Å)

B1: mCherry-fused low-complexity domain of TFG, residues 237-327, G269V (domain or fragment, human, UniProt Q92734 237-327, looked up)
chain: GQIEGQMYQQYQQQAGYGAQQPQAPPQQPQQYVIQYSASYSQQTGPQQPQQFQGYGQQPTSQAPAPAFSGQPQQLPAQPPQQYQASNYPAQ
notes: TRK-fused gene protein (TFG), human, low-complexity domain, residues 237-327, with the documented pathogenic mutation G269V (Charcot-Marie-Tooth disease type 2); also called TFG (237-327) G269V; mutant construct; source: E. coli BL21(DE3) Gold, purified (nickel-nitrilotriacetic acid, size-exclusion chromatography), dialyzed into PBS
- binding result: binds

B2: mCherry-fused low-complexity domain of TFG, residues 237-327, P285L (domain or fragment, human, UniProt Q92734 237-327, looked up)
chain: B1 chain with V33G, P49L
notes: also called TFG (237-327) P285L; mutant construct; source: E. coli BL21(DE3) Gold, purified (nickel-nitrilotriacetic acid, size-exclusion chromatography), dialyzed into PBS
- binding result: binds
